{"source": "the supplement of paper PMC12067230", "parents": {"B1": {"name": "C-5-H; numbered along this chain (parent)", "chain": "EASNCFAIRHFENKFAVETLICFNLFLNSQEKHY"}}, "note": "± gives the uncertainty stated by the source.", "data": [{"variants_of": "B1", "experiment": "amyloid nucleation score relative to WT ADan (yeast Sup35 reporter selection) (log enrichment difference); higher = more amyloid nucleation", "description": "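Deep mutational scan of the ADan peptide fused to the Sup35 nucleation domain (SupN) in S. cerevisiae [psi-pin-], covering all single amino-acid substitutions and stop truncations (truncations = sequence up to the stop). After 24 h Cu2+ induction, cells were selected on -ADE-URA plates for 7 d at 30 °C. The nucleation score is log enrichment (output/input, deep sequencing) minus that of WT ADan, as the error-weighted mean of 3 biological replicates (DiMSum).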", "values": [{"variant": "EASNHFAIRHFENKFAVETLICFNLFLNSQEKHY", "note": "[C5H]", "amyloid nucleation score": "0.0549 ± 0.26"}, {"variant": "EASNSFAIRHFENKFAVETLICFNLFLNSQEKHY", "note": "[C5S]", "amyloid nucleation score": "0.0127 ± 0.12"}, {"variant": "EASNPFAIRHFENKFAVETLICFNLFLNSQEKHY", "note": "[C5P]", "amyloid nucleation score": "0.685 ± 0.19"}, {"variant": "EASNFFAIRHFENKFAVETLICFNLFLNSQEKHY", "note": "[C5F]", "amyloid nucleation score": "0.0304 ± 0.15"}, {"variant": "EASNIFAIRHFENKFAVETLICFNLFLNSQEKHY", "note": "[C5I]", "amyloid nucleation score": "-0.166 ± 0.15"}, {"variant": "EASNMFAIRHFENKFAVETLICFNLFLNSQEKHY", "note": "[C5M]", "amyloid nucleation score": "0.796 ± 0.19"}, {"variant": "EASNWFAIRHFENKFAVETLICFNLFLNSQEKHY", "note": "[C5W]", "amyloid nucleation score": "-1.36 ± 0.21"}, {"variant": "EASNGFAIRHFENKFAVETLICFNLFLNSQEKHY", "note": "[C5G]", "amyloid nucleation score": "0.214 ± 0.11"}, {"variant": "EASNEFAIRHFENKFAVETLICFNLFLNSQEKHY", "note": "[C5E]", "amyloid nucleation score": "0.484 ± 0.21"}, {"variant": "EASNNFAIRHFENKFAVETLICFNLFLNSQEKHY", "note": "[C5N]", "amyloid nucleation score": "0.0664 ± 0.2"}, {"variant": "EASNVFAIRHFENKFAVETLICFNLFLNSQEKHY", "note": "[C5V]", "amyloid nucleation score": "-0.199 ± 0.12"}, {"variant": "EASNTFAIRHFENKFAVETLICFNLFLNSQEKHY", "note": "[C5T]", "amyloid nucleation score": "-0.0743 ± 0.15"}, {"variant": "EASNDFAIRHFENKFAVETLICFNLFLNSQEKHY", "note": "[C5D]", "amyloid nucleation score": "0.699 ± 0.18"}, {"variant": "EASNAFAIRHFENKFAVETLICFNLFLNSQEKHY", "note": "[C5A]", "amyloid nucleation score": "0.274 ± 0.14"}, {"variant": "EASNYFAIRHFENKFAVETLICFNLFLNSQEKHY", "note": "[C5Y]", "amyloid nucleation score": "-0.00901 ± 0.15"}, {"variant": "EALNCFAIRHFENKFAVETLICFNLFLNSQEKHY", "note": "[S3L]", "amyloid nucleation score": "-0.738 ± 0.16"}, {"variant": "EAMNCFAIRHFENKFAVETLICFNLFLNSQEKHY", "note": "[S3M]", "amyloid nucleation score": "0.163 ± 0.25"}, {"variant": "EANNCFAIRHFENKFAVETLICFNLFLNSQEKHY", "note": "[S3N]", "amyloid nucleation score": "0.0448 ± 0.23"}, {"variant": "EAQNCFAIRHFENKFAVETLICFNLFLNSQEKHY", "note": "[S3Q]", "amyloid nucleation score": "-0.501 ± 0.37"}, {"variant": "EAINCFAIRHFENKFAVETLICFNLFLNSQEKHY", "note": "[S3I]", "amyloid nucleation score": "-1.1 ± 0.23"}, {"variant": "EAKNCFAIRHFENKFAVETLICFNLFLNSQEKHY", "note": "[S3K]", "amyloid nucleation score": "0.21 ± 0.27"}, {"variant": "EAWNCFAIRHFENKFAVETLICFNLFLNSQEKHY", "note": "[S3W]", "amyloid nucleation score": "-0.398 ± 0.25"}, {"variant": "EAFNCFAIRHFENKFAVETLICFNLFLNSQEKHY", "note": "[S3F]", "amyloid nucleation score": "-0.00261 ± 0.19"}, {"variant": "EAYNCFAIRHFENKFAVETLICFNLFLNSQEKHY", "note": "[S3Y]", "amyloid nucleation score": "0.296 ± 0.25"}, {"variant": "EARNCFAIRHFENKFAVETLICFNLFLNSQEKHY", "note": "[S3R]", "amyloid nucleation score": "-0.46 ± 0.17"}, {"variant": "EAENCFAIRHFENKFAVETLICFNLFLNSQEKHY", "note": "[S3E]", "amyloid nucleation score": "0.224 ± 0.23"}, {"variant": "EADNCFAIRHFENKFAVETLICFNLFLNSQEKHY", "note": "[S3D]", "amyloid nucleation score": "0.481 ± 0.22"}, {"variant": "EAHNCFAIRHFENKFAVETLICFNLFLNSQEKHY", "note": "[S3H]", "amyloid nucleation score": "-0.359 ± 0.39"}, {"variant": "EATNCFAIRHFENKFAVETLICFNLFLNSQEKHY", "note": "[S3T]", "amyloid nucleation score": "-0.349 ± 0.21"}, {"variant": "EACNCFAIRHFENKFAVETLICFNLFLNSQEKHY", "note": "[S3C]", "amyloid nucleation score": "0.601 ± 0.2"}, {"variant": "EAANCFAIRHFENKFAVETLICFNLFLNSQEKHY", "note": "[S3A]", "amyloid nucleation score": "0.258 ± 0.18"}, {"variant": "EAGNCFAIRHFENKFAVETLICFNLFLNSQEKHY", "note": "[S3G]", "amyloid nucleation score": "0.112 ± 0.14"}, {"variant": "EAPNCFAIRHFENKFAVETLICFNLFLNSQEKHY", "note": "[S3P]", "amyloid nucleation score": "0.338 ± 0.36"}, {"variant": "EAVNCFAIRHFENKFAVETLICFNLFLNSQEKHY", "note": "[S3V]", "amyloid nucleation score": "-0.392 ± 0.16"}, {"variant": "EASNCFRIRHFENKFAVETLICFNLFLNSQEKHY", "note": "[A7R]", "amyloid nucleation score": "0.12 ± 0.086"}, {"variant": "EASNCFMIRHFENKFAVETLICFNLFLNSQEKHY", "note": "[A7M]", "amyloid nucleation score": "-0.0811 ± 0.16"}, {"variant": "EASNCFCIRHFENKFAVETLICFNLFLNSQEKHY", "note": "[A7C]", "amyloid nucleation score": "0.601 ± 0.12"}, {"variant": "EASNCFWIRHFENKFAVETLICFNLFLNSQEKHY", "note": "[A7W]", "amyloid nucleation score": "-0.43 ± 0.15"}, {"variant": "EASNCFKIRHFENKFAVETLICFNLFLNSQEKHY", "note": "[A7K]", "amyloid nucleation score": "0.0182 ± 0.15"}, {"variant": "EASNCFFIRHFENKFAVETLICFNLFLNSQEKHY", "note": "[A7F]", "amyloid nucleation score": "0.173 ± 0.13"}, {"variant": "EASNCFDIRHFENKFAVETLICFNLFLNSQEKHY", "note": "[A7D]", "amyloid nucleation score": "-0.2 ± 0.14"}, {"variant": "EASNCFQIRHFENKFAVETLICFNLFLNSQEKHY", "note": "[A7Q]", "amyloid nucleation score": "0.436 ± 0.18"}, {"variant": "EASNCFPIRHFENKFAVETLICFNLFLNSQEKHY", "note": "[A7P]", "amyloid nucleation score": "0.577 ± 0.12"}, {"variant": "EASNCFLIRHFENKFAVETLICFNLFLNSQEKHY", "note": "[A7L]", "amyloid nucleation score": "-1.17 ± 0.099"}, {"variant": "EASNCFTIRHFENKFAVETLICFNLFLNSQEKHY", "note": "[A7T]", "amyloid nucleation score": "-0.0425 ± 0.13"}, {"variant": "EASNCFSIRHFENKFAVETLICFNLFLNSQEKHY", "note": "[A7S]", "amyloid nucleation score": "0.0708 ± 0.089"}, {"variant": "EASNCFNIRHFENKFAVETLICFNLFLNSQEKHY", "note": "[A7N]", "amyloid nucleation score": "0.744 ± 0.13"}, {"variant": "EASNCFEIRHFENKFAVETLICFNLFLNSQEKHY", "note": "[A7E]", "amyloid nucleation score": "0.0742 ± 0.14"}, {"variant": "EASNCFIIRHFENKFAVETLICFNLFLNSQEKHY", "note": "[A7I]", "amyloid nucleation score": "-0.415 ± 0.14"}, {"variant": "EASNCFHIRHFENKFAVETLICFNLFLNSQEKHY", "note": "[A7H]", "amyloid nucleation score": "0.394 ± 0.15"}, {"variant": "EASNCFYIRHFENKFAVETLICFNLFLNSQEKHY", "note": "[A7Y]", "amyloid nucleation score": "0.529 ± 0.13"}, {"variant": "EASNCFGIRHFENKFAVETLICFNLFLNSQEKHY", "note": "[A7G]", "amyloid nucleation score": "0.45 ± 0.082"}, {"variant": "EASNCFVIRHFENKFAVETLICFNLFLNSQEKHY", "note": "[A7V]", "amyloid nucleation score": "0.125 ± 0.1"}, {"variant": "EASGCFAIRHFENKFAVETLICFNLFLNSQEKHY", "note": "[N4G]", "amyloid nucleation score": "-2.24 ± 0.15"}, {"variant": "EASCCFAIRHFENKFAVETLICFNLFLNSQEKHY", "note": "[N4C]", "amyloid nucleation score": "-2.58 ± 0.3"}, {"variant": "EASQCFAIRHFENKFAVETLICFNLFLNSQEKHY", "note": "[N4Q]", "amyloid nucleation score": "-0.267 ± 0.22"}, {"variant": "EASRCFAIRHFENKFAVETLICFNLFLNSQEKHY", "note": "[N4R]", "amyloid nucleation score": "-0.0776 ± 0.12"}, {"variant": "EASTCFAIRHFENKFAVETLICFNLFLNSQEKHY", "note": "[N4T]", "amyloid nucleation score": "-2.19 ± 0.26"}, {"variant": "EASWCFAIRHFENKFAVETLICFNLFLNSQEKHY", "note": "[N4W]", "amyloid nucleation score": "-3.34 ± 0.39"}, {"variant": "EASYCFAIRHFENKFAVETLICFNLFLNSQEKHY", "note": "[N4Y]", "amyloid nucleation score": "-2.45 ± 0.28"}, {"variant": "EASHCFAIRHFENKFAVETLICFNLFLNSQEKHY", "note": "[N4H]", "amyloid nucleation score": "-0.547 ± 0.26"}, {"variant": "EASPCFAIRHFENKFAVETLICFNLFLNSQEKHY", "note": "[N4P]", "amyloid nucleation score": "-0.352 ± 0.18"}, {"variant": "EASFCFAIRHFENKFAVETLICFNLFLNSQEKHY", "note": "[N4F]", "amyloid nucleation score": "-4.13 ± 0.42"}, {"variant": "EASECFAIRHFENKFAVETLICFNLFLNSQEKHY", "note": "[N4E]", "amyloid nucleation score": "0.296 ± 0.18"}, {"variant": "EASICFAIRHFENKFAVETLICFNLFLNSQEKHY", "note": "[N4I]", "amyloid nucleation score": "-3.04 ± 0.28"}, {"variant": "EASLCFAIRHFENKFAVETLICFNLFLNSQEKHY", "note": "[N4L]", "amyloid nucleation score": "-4.8 ± 0.57"}, {"variant": "EASKCFAIRHFENKFAVETLICFNLFLNSQEKHY", "note": "[N4K]", "amyloid nucleation score": "0.0897 ± 0.19"}, {"variant": "EASACFAIRHFENKFAVETLICFNLFLNSQEKHY", "note": "[N4A]", "amyloid nucleation score": "-3.1 ± 0.4"}, {"variant": "EASDCFAIRHFENKFAVETLICFNLFLNSQEKHY", "note": "[N4D]", "amyloid nucleation score": "0.376 ± 0.17"}, {"variant": "EASSCFAIRHFENKFAVETLICFNLFLNSQEKHY", "note": "[N4S]", "amyloid nucleation score": "-0.879 ± 0.12"}, {"variant": "EASMCFAIRHFENKFAVETLICFNLFLNSQEKHY", "note": "[N4M]", "amyloid nucleation score": "-4.92 ± 0.93"}, {"variant": "EASVCFAIRHFENKFAVETLICFNLFLNSQEKHY", "note": "[N4V]", "amyloid nucleation score": "-4.24 ± 0.49"}]}]}
